Molecular target: EGFR extracellular domain (with an amino acid sequence of 25-645) (human) (UniProt P00533)
Assay: SPR, Biacore T200; EGFR extracellular domain on CM5 chip, rLZ-8 protein as analyte

Kd: 6.43 nM
Substance: rLZ-8 (D20H/E68K) (from UniProt P14945 1-111)

From patent publication US12077566
